Laboratory results taken from patent publication USRE39192E1, “Supplemented and unsupplemented tissue sealants, methods of their production and use” (American National Red Cross, priority 1990, dated 2006).
Where a name gives a salt, the structure may show the parent alone.

How the values were obtained:
E. coli = experiment: Antimicrobial activity of AB released from AB-FG (zone of inhibition); assay type: cell-based; conditions: eluates on agar plates, 18 hours at 37° C.
Protocol: FIG. 27. […] Then the diameter of the zone of inhibition was measured.
In order to measure the concentration and biological activity of the TFT which had been released from the TFT-FG disks, the eluted TFT was thawed and was analyzed spectrophotometrically at 320 nm and/or biologically by the inhibition of E. coli grown on agar plates.
The antimicrobial activity of the AB released from the AB-FG was estimated by measuring the diameters of the zones of inhibition generated by the eluate from the 6 mm diameter disks form the daily collected PBS or saliva surrounding the AB-FG. The eluates from unsupplemented FG served as controls. AB solutions of knwon concentration were used as standards. […] To make the culture plates, 100 μl of the bacterial cell suspension, containing approximately 10^8 cells/ml, was mixed with 3 ml of top agar at 50° C. and immediately poured onto the plate hard, bottom agar to make a uniform layer of cells. The plates were incubated at 37° C. for 18 hours.

[1] = tested on: human dermal fibroblasts (HDFs); experiment: Cell migration assay to FGF released from FG; assay type: cell-based; conditions: 24 hours
Protocol: FIG. 41. Graph showing the dose-response relationship of the chemotactic response of HDFs to FGF-4 in solution and in FG. FGF-4 was incorporated into FG and placed in the bottom well of chemotaxis chambers. The amount of FGF in the FG was sufficient to result in the indicated concentrations when evenly distributed throughout the FG and medium in the lower chamber. Negative controls included medium alone and FG without FGF. Medium containing FGF-4 at a concentration of […] in the lower chamber was utilized as a positive control.
Chemotaxis chambers and cells were utilized as described above. Fifty μl of 8 mg/ml Topical Fibrinogen Complex (TFC, American Red Cross, Rockville, Md.) was added to the bottom of 24 well plates. Forty μl of test growth factor+/−heparin at a final concentration of 10 U/ml (FGF-1, FGF-4 with heparin, FGF-2 alone) was added to the TFC and thoroughly mixed. Ten μl of bovine Thrombin (Armour Pharmaceutical Company, Kankakee, Ill.) was added and mixed thoroughly. The components were allowed to gel at room temperature for approximately 30 minutes. Total volume in the lower and upper chambers was made up to 0.5 ml each with DMEM+0.1% BSA. The concentration of the FGF's added to the TFC was adjusted to produce the desired overall concentration as determined by: [formula] The assay was performed at 37° C. in a5% CO2 humidified chamber for approximately 24 hours. […]

NIH 3T3 fibroblasts = experiment: Cell chemotaxis assay (modified Boyden's chamber), NIH 3T3 fibroblasts; assay type: cell-based; conditions: for concentration of maximum stimulation of migration: FGF-1 in the presence of 10 U/ml heparin
Description: (§1) NIH/3T3 fibroblasts at passage 126 were purchased from the American Type Culture Collection, Rockville, Md. Cultures from passages 129-133 were used in the chemotaxis assays. Cultures were propagated in DMEM supplemented with 10%. Calf serum and approximately 1% antibiotic antimycotic solution. Human dermal fibroblasts (HDFs) were purchased from Clonetics, Inc. (San Diego, Calif.) at passage 2. Cultures from passages 3-5 were used in the chemotaxis assays. Cultures were cultivated in DMEM supplemented with 20% FBS (Hyclone Laboratories, Inc., Logan, Utah) and approximately 1% antibiotic antimycotic solution (Gibco, Grand Island, N.Y.).
The procedure used to determine cellular chemotaxis was a combination of two known methodologies. A modification of Boyden's chamber was used as follows: Millicell-PCF (Millipore, Inc., Bedford, Mass.) (12.0 μm) 12.0 mm diameter inserts were placed in individual wells of 24 well plates to create the upper and lower chemotaxis chambers. Chemotaxis results were arrived at by performing checkerboard analysis for every combination of cells and growth factors. […] Briefly, cultures were trypsanized and placed in DMEM+0.1% Bovine Serum Albumin (BSA) (Sigma Chemical Co., St. Louis, Mo.) for approximately one hour at 37° C. in a 5% CO2 humidified chamber. Tow to 2.5×10^5 cells in 50 μl were added per insert to the upper chamber of the setup of the 24 well plates. Treatments were added as mentioned above. The assay was kept at 37° C. in a 5% CO2 humidified chamber for 4 hours. All combinations tested were performed in triplicate. At the end of 4 hours, the plates were removed from the incubator and the filters were stained following the protocol for staining included with the Millicell-PCT inserts. Briefly, the fluid surrounding the inside and outside of the Millicell-PCF inserts were removed. Three percent glutaraldehyde (Sigma Chemical Co., St. Louis, Mo.) was added to the outside and inside of the inserts for approximately 20 minutes. Following removal of the 3.0% glutaraldehyde, 0.5% Triton X-100 (E.M. Science, Cherry Hill, N.J.) was added for 5-7 minutes. On removal of the 0.5% Triton X-100, Fisher's Hematoxylin Solution Gill's Formulation (Fisher Scientific, Newark, Del.) No.1 was added for about 10 minutes. This solution was washed off in running distilled water for about 5 minutes. Using a cotton swab the upper side of the filter was swabbed to remove cells which had not migrated. Filters, were mounted lower side facing up on slides in Crystal Mount™ (Biomedia, Inc., Foster City, Calif.) solution and 10 random field were counted per slide both visually at 400× and at 200×using an Image Analyzing System to automate the enumeration of the cells on the underside of the filters.
(§2) As required, checkerboard analysis was carried out to determine random migration, and positive and negative chemotaxis. Growth factors were added to the upper and/or lower chambers to observe whether cells migrated towards the GF alone (chemotaxis), whether migration was random irrespective of whether the growth factor was added to the upper or lower well (chemokinesis) or whether cell migration was against the chemotactic gradient (negative chemotaxis).

[2] = tested on: human dermal fibroblasts (HDFs); experiment: Cell chemotaxis assay (modified Boyden's chamber), human dermal fibroblasts; assay type: cell-based
Description: as §1
The procedure used to determine cellular chemotaxis was a combination of two known methodologies. A modification of Boyden's chamber was used as follows: Millicell-PCF (Millipore, Inc., Bedford, Mass.) (12.0 μm) 12.0 mm diameter inserts were placed in individual wells of 24 well plates to create the upper and lower chemotaxis chambers. Chemotaxis results were arrived at by performing checkerboard analysis for every combination of cells and growth factors. Concentrations ranging from 0.1, 1, 10, 100 ng/ml with/without added heparin (10 U/ml) were used for FGF-1, FGF-2 (no heparin) and FGF-4 with all the cell types mentioned in the materials section. Briefly, cultures were trypsanized and placed in DMEM+0.1% Bovine Serum Albumin (BSA) (Sigma Chemical Co., St. Louis, Mo.) for approximately one hour at 37° C. in a 5% CO2 humidified chamber. Tow to 2.5×10^5 cells in 50 μl were added per insert to the upper chamber of the setup of the 24 well plates. Treatments were added as mentioned above. The assay was kept at 37° C. in a 5% CO2 humidified chamber for 4 hours. All combinations tested were performed in triplicate. At the end of 4 hours, the plates were removed from the incubator and the filters were stained following the protocol for staining included with the Millicell-PCT inserts. Briefly, the fluid surrounding the inside and outside of the Millicell-PCF inserts were removed. Three percent glutaraldehyde (Sigma Chemical Co., St. Louis, Mo.) was added to the outside and inside of the inserts for approximately 20 minutes. Following removal of the 3.0% glutaraldehyde, 0.5% Triton X-100 (E.M. Science, Cherry Hill, N.J.) was added for 5-7 minutes. On removal of the 0.5% Triton X-100, Fisher's Hematoxylin Solution Gill's Formulation (Fisher Scientific, Newark, Del.) No.1 was added for about 10 minutes. This solution was washed off in running distilled water for about 5 minutes. Using a cotton swab the upper side of the filter was swabbed to remove cells which had not migrated. Filters, were mounted lower side facing up on slides in Crystal Mount™ (Biomedia, Inc., Foster City, Calif.) solution and 10 random field were counted per slide both visually at 400× and at 200×using an Image Analyzing System to automate the enumeration of the cells on the underside of the filters.
as §2

[3] = Washout of 125I-HBGF-1 from FG-treated PTFE grafts in rabbit aortas; assay type: in vivo, New Zealand white rabbits
Protocol: In general, the modified F was sterilely prepared by adding approximately 1 ng/cm^2 area of the inner and outer graft surfaces of human recombinant […], 20 μg/cm^2 porcine intestinal mucosal heparin, and 2.86 mg/cm^2 fibrinogen to 2.86×10^−2 U/cm^2 reconstituted, commercially available, human thrombin (1000 U/ml) to induce polymerization.
The […] was specifically prepared as follows. Fibrinogen was reconstituted by adding 500 mg of fibrinogen into 25 ml of PBS to produce a fibrinogen concentration of 20 mg/ml of PBS. Three ml of this solution which contained 60 mg fibrinogen were placed into […] Eppendorf plastic tubes and maintained at −70° C. Each of these aliquots was used individually.
The thrombin was reconstituted by diluting a commercially available preparation thereof (Armour Pharmaceutical Co., Kankakee, Ill.) at a concentration of 1000 U/ml by a factor of 1:10 in sterile solution to produce a concentration of 100 U/ml. This thrombin solution was again diluted 1:10 to produce a solution of 10 U/ml.
The bovine heparin (Upjohn, Kalamazoo, Mich.) was reconstituted by diluting the preparation at a concentration of 1000 U/ml by a factor of 1:1000 using normal saline.
One and 48/100 (1.48) ml of the reconstituted fibrinogen, 63 μL of the reconstituted heparin, plus 15.66 μL of ^125I-HBGF-1 were mixed in a glass scintillation tube. This mixture was then aspirated into a 3 ml plastic syringe. Five ml of the reconstituted thrombin was placed into a glass scintillation tube.
One end of the expanded PTFE graft was placed over a plastic-3 way stopcock nozzle and was secured there with a 2-0 silk tie. The PTFE was then encircled with a 3×3 cm square of Parafilm™ which was then crimped there with a straight hemostat to establish a watertight seal. A second 2-0 silk tie was positioned over the parafilm adjacent to the stopcock to form another seal. A straight hemostat was then used to clamp the distal 2 mm of the PTFE/parafilm to seal this end.
Equal volumes of fibrinogen and thrombin solution prepared as described above were mixed and allowed to react for approximately 30 seconds which is when polymerization occurs. The thrombin-polymerized fibrin is then opaque. (This time factor is approximate and varies from one thrombin lot to another. The appropriate length of time to polymerization can be determined by viewing the opacity of the mixture). The fibrin/thrombin mixture was aspirated into a one cc syringe. (NOTE: The volume of this graft was 0.42 ml. For a graft with a larger volume one needs to use a larger syringe). […] The treated graft was then ready for implantation. […]

O=C(O)c1cn(C2CC2)c2cc(N3CCNCC3)c(F)cc2c1=O [CIP, Ciprofloxacin HCl]
antimicrobial activity of released AB (E. coli): parallels the profiles determined spectrophotometrically

Cc1ncc([N+](=O)[O-])n1CCO [MET, Metronidazole]
antimicrobial activity of released AB (E. coli): parallels the profiles determined spectrophotometrically

FGF-2: recombinant fibroblast growth factor-2
concentration in FG eliciting peak chemotactic response [1]: 0.01 mg/mL | checkerboard analysis (NIH 3T3 fibroblasts): chemotactic | concentration of maximum stimulation of migration (NIH 3T3 fibroblasts): 1 ng/mL | checkerboard analysis [2]: chemotactic | concentration of maximum stimulation of migration [2]: 10 mg/mL | maximal migratory response over negative control [2]: 12 fold

^125I-HBGF-1: radiolabelled human recombinant HBGF-1 in FG applied to PTFE grafts
remaining 125I-HBGF-1, percentage of the zero time value ([3]; after 1 week): 13.44%±6.9% | washout of 125I-HBGF-1 ([3]; after 1 hr): −0.03 %/min | remaining 125I-HBGF-1, percentage of the zero time value ([3]; after 30 days): 3.8%±1.1% | washout of 125I-HBGF-1 ([3]; between 5 and 60 minutes): −24.1 %/min

B1: FGF-4: recombinant fibroblast growth factor-4 (protein, UniProt P08620 31-206, looked up)
Fibroblast growth factor 4: APTAPNGTLEAELERRWESLVALSLARLPVAAQPKEAAVQSGAGDYLLGIKRLRRLYCNVGIGFHLQALPDGRIGGAHADTRDSLLELSPVERGVVSIFGVASRFFVAMSSKGKLYGSPFFTDECTFKEILLPNNYNAYESYKYPGMFIALSKNGKTKKGNRVSPTMKVTHFLPRL
incorporated and total concentration in FG eliciting maximal migratory response [1]: 1 ng/mL | checkerboard analysis (NIH 3T3 fibroblasts): chemotactic | concentration of maximum stimulation of migration (NIH 3T3 fibroblasts): 10 ng/mL | checkerboard analysis [2]: chemotactic | concentration of maximum stimulation of migration [2]: 10 mg/mL | maximal migratory response over negative control [2]: 10 fold
